In the supplement of paper PMC9112550, “Optimization of the antimicrobial peptide Bac7 by deep mutational scanning” (BMC Biology, 2022):

System: Escherichia coli TOP10
Assay: shrunken log2 fold change of peptide-encoding DNA abundance (4.5 h post-induction vs induction); higher = less antimicrobial activity (less host growth inhibition)
Conditions: time post-induction: 4.5 h; library: site-saturation at positions 5, 18, 19, 20
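Note: peptides expressed intracellularly from a pBAD plasmid library in pooled LB shake-flask culture, induced with 0.3% L-arabinose, DNA abundance read by NGS, three biological replicates, DESeq2 with apeglm shrinkage.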

RRIRPRPPRLPRPRPRPDCNPRP
shrunken log2 fold change: -0.319

RRIRPRPPRLPRPRPRPDDLPRP
shrunken log2 fold change: -0.296

RRIRPRPPRLPRPRPRPDELPRP
shrunken log2 fold change: -0.0607

RRIRPRPPRLPRPRPRPDFEPRP
shrunken log2 fold change: -0.235

RRIRPRPPRLPRPRPRPDFFPRP
shrunken log2 fold change: -0.0853

RRIRPRPPRLPRPRPRPDFIPRP
shrunken log2 fold change: -0.233

RRIRPRPPRLPRPRPRPDFNPRP
shrunken log2 fold change: 1.09

RRIRPRPPRLPRPRPRPDGAPRP
shrunken log2 fold change: 0.159

RRIRPRPPRLPRPRPRPDHFPRP
shrunken log2 fold change: -0.0536

RRIRPRPPRLPRPRPRPDHIPRP
shrunken log2 fold change: -0.0312

RRIRPRPPRLPRPRPRPDHVPRP
shrunken log2 fold change: -0.474

RRIRPRPPRLPRPRPRPDHWPRP
shrunken log2 fold change: 0.0752

RRIRPRPPRLPRPRPRPDICPRP
shrunken log2 fold change: 0.0683

RRIRPRPPRLPRPRPRPDIIPRP
shrunken log2 fold change: 0.00942

RRIRPRPPRLPRPRPRPDMKPRP
shrunken log2 fold change: -0.417

RRIRPRPPRLPRPRPRPDNAPRP
shrunken log2 fold change: 0.0303

RRIRPRPPRLPRPRPRPDNKPRP
shrunken log2 fold change: -0.778

RRIRPRPPRLPRPRPRPDNWPRP
shrunken log2 fold change: -0.121

RRIRPRPPRLPRPRPRPDQSPRP
shrunken log2 fold change: 0.021

RRIRPRPPRLPRPRPRPDSIPRP
shrunken log2 fold change: -0.598

RRIRPRPPRLPRPRPRPDTSPRP
shrunken log2 fold change: -0.738

RRIRPRPPRLPRPRPRPDVLPRP
shrunken log2 fold change: -0.709

RRIRPRPPRLPRPRPRPDVSPRP
shrunken log2 fold change: 0.0525

RRIRPRPPRLPRPRPRPDWHPRP
shrunken log2 fold change: -0.159

RRIRPRPPRLPRPRPRPDWNPRP
shrunken log2 fold change: -0.0666

RRIRPRPPRLPRPRPRPDWVPRP
shrunken log2 fold change: 0.0636

RRIRPRPPRLPRPRPRPEAFPRP
shrunken log2 fold change: -0.0543

RRIRPRPPRLPRPRPRPECSPRP
shrunken log2 fold change: -0.0845

RRIRPRPPRLPRPRPRPEFVPRP
shrunken log2 fold change: -0.0384

RRIRPRPPRLPRPRPRPEGDPRP
shrunken log2 fold change: 0.39

RRIRPRPPRLPRPRPRPEGPPRP
shrunken log2 fold change: -0.147

RRIRPRPPRLPRPRPRPEGQPRP
shrunken log2 fold change: 0.798

RRIRPRPPRLPRPRPRPEIIPRP
shrunken log2 fold change: -0.0816

RRIRPRPPRLPRPRPRPEINPRP
shrunken log2 fold change: -0.264

RRIRPRPPRLPRPRPRPELFPRP
shrunken log2 fold change: 0.25

RRIRPRPPRLPRPRPRPELGPRP
shrunken log2 fold change: 0.24

RRIRPRPPRLPRPRPRPELPPRP
shrunken log2 fold change: 0.175

RRIRPRPPRLPRPRPRPELRPRP
shrunken log2 fold change: -0.0276

RRIRPRPPRLPRPRPRPENAPRP
shrunken log2 fold change: 0.0319

RRIRPRPPRLPRPRPRPEPGPRP
shrunken log2 fold change: 0.27

RRIRPRPPRLPRPRPRPEPYPRP
shrunken log2 fold change: -0.309

RRIRPRPPRLPRPRPRPEQDPRP
shrunken log2 fold change: 0.0894

RRIRPRPPRLPRPRPRPERKPRP
shrunken log2 fold change: 0.489

RRIRPRPPRLPRPRPRPESVPRP
shrunken log2 fold change: 0.0986

RRIRPRPPRLPRPRPRPETLPRP
shrunken log2 fold change: -0.0144

RRIRPRPPRLPRPRPRPEVQPRP
shrunken log2 fold change: 0.0715

RRIRPRPPRLPRPRPRPEWSPRP
shrunken log2 fold change: -0.0838

RRIRPRPPRLPRPRPRPFAHPRP
shrunken log2 fold change: -0.124

RRIRPRPPRLPRPRPRPFDSPRP
shrunken log2 fold change: -0.0336

RRIRPRPPRLPRPRPRPFDYPRP
shrunken log2 fold change: -0.391

RRIRPRPPRLPRPRPRPFEFPRP
shrunken log2 fold change: 0.0458

RRIRPRPPRLPRPRPRPFFQPRP
shrunken log2 fold change: 0.0612

RRIRPRPPRLPRPRPRPFGYPRP
shrunken log2 fold change: -0.24

RRIRPRPPRLPRPRPRPFHEPRP
shrunken log2 fold change: -0.187

RRIRPRPPRLPRPRPRPFKIPRP
shrunken log2 fold change: 0.0869

RRIRPRPPRLPRPRPRPFKTPRP
shrunken log2 fold change: -0.199

RRIRPRPPRLPRPRPRPFMLPRP
shrunken log2 fold change: -0.378

RRIRPRPPRLPRPRPRPFMMPRP
shrunken log2 fold change: -0.845

RRIRPRPPRLPRPRPRPFMRPRP
shrunken log2 fold change: -0.1

RRIRPRPPRLPRPRPRPFNRPRP
shrunken log2 fold change: -0.436

RRIRPRPPRLPRPRPRPFNYPRP
shrunken log2 fold change: -0.269

RRIRPRPPRLPRPRPRPFPKPRP
shrunken log2 fold change: 0.166

RRIRPRPPRLPRPRPRPFRFPRP
shrunken log2 fold change: 0.0991

RRIRPRPPRLPRPRPRPFTDPRP
shrunken log2 fold change: -0.247

RRIRPRPPRLPRPRPRPFTGPRP
shrunken log2 fold change: -0.0818

RRIRPRPPRLPRPRPRPFVEPRP
shrunken log2 fold change: -0.0706

RRIRPRPPRLPRPRPRPFVQPRP
shrunken log2 fold change: -0.0832

RRIRPRPPRLPRPRPRPFWAPRP
shrunken log2 fold change: 0.0614

RRIRPRPPRLPRPRPRPFYMPRP
shrunken log2 fold change: -0.324

RRIRPRPPRLPRPRPRPFYQPRP
shrunken log2 fold change: -0.142

RRIRPRPPRLPRPRPRPGCYPRP
shrunken log2 fold change: 0.189

RRIRPRPPRLPRPRPRPGDHPRP
shrunken log2 fold change: -0.013

RRIRPRPPRLPRPRPRPGDSPRP
shrunken log2 fold change: 0.035

RRIRPRPPRLPRPRPRPGDWPRP
shrunken log2 fold change: 0.432

RRIRPRPPRLPRPRPRPGEGPRP
shrunken log2 fold change: 0.349

RRIRPRPPRLPRPRPRPGETPRP
shrunken log2 fold change: 0.117

RRIRPRPPRLPRPRPRPGFCPRP
shrunken log2 fold change: 0.295

RRIRPRPPRLPRPRPRPGHYPRP
shrunken log2 fold change: -0.0973

RRIRPRPPRLPRPRPRPGKGPRP
shrunken log2 fold change: 0.0267

RRIRPRPPRLPRPRPRPGLIPRP
shrunken log2 fold change: -0.0104

RRIRPRPPRLPRPRPRPGLPPRP
shrunken log2 fold change: 0.0398

RRIRPRPPRLPRPRPRPGMGPRP
shrunken log2 fold change: 0.149

RRIRPRPPRLPRPRPRPGNYPRP
shrunken log2 fold change: -0.36

RRIRPRPPRLPRPRPRPGPFPRP
shrunken log2 fold change: 0.574

RRIRPRPPRLPRPRPRPGRRPRP
shrunken log2 fold change: 0.123

RRIRPRPPRLPRPRPRPGSGPRP
shrunken log2 fold change: 1.05

RRIRPRPPRLPRPRPRPGSRPRP
shrunken log2 fold change: 0.144

RRIRPRPPRLPRPRPRPGTLPRP
shrunken log2 fold change: 0.0426

RRIRPRPPRLPRPRPRPGTVPRP
shrunken log2 fold change: -0.182

RRIRPRPPRLPRPRPRPGTYPRP
shrunken log2 fold change: -0.147

RRIRPRPPRLPRPRPRPGVMPRP
shrunken log2 fold change: 0.0104

RRIRPRPPRLPRPRPRPGVNPRP
shrunken log2 fold change: -0.342

RRIRPRPPRLPRPRPRPGVQPRP
shrunken log2 fold change: 0.336

RRIRPRPPRLPRPRPRPGWHPRP
shrunken log2 fold change: 0.248

RRIRPRPPRLPRPRPRPGYEPRP
shrunken log2 fold change: -0.172

RRIRPRPPRLPRPRPRPGYFPRP
shrunken log2 fold change: -0.0323

RRIRPRPPRLPRPRPRPGYWPRP
shrunken log2 fold change: 0.278

RRIRPRPPRLPRPRPRPHCIPRP
shrunken log2 fold change: -0.325

RRIRPRPPRLPRPRPRPHCRPRP
shrunken log2 fold change: -0.198

RRIRPRPPRLPRPRPRPHDMPRP
shrunken log2 fold change: -1.48

RRIRPRPPRLPRPRPRPHDRPRP
shrunken log2 fold change: -0.0974

RRIRPRPPRLPRPRPRPHHGPRP
shrunken log2 fold change: 0.0245

RRIRPRPPRLPRPRPRPHKAPRP
shrunken log2 fold change: 0.0705

RRIRPRPPRLPRPRPRPHKFPRP
shrunken log2 fold change: -0.547

RRIRPRPPRLPRPRPRPHLEPRP
shrunken log2 fold change: -0.122

RRIRPRPPRLPRPRPRPHMDPRP
shrunken log2 fold change: -0.374

RRIRPRPPRLPRPRPRPHMEPRP
shrunken log2 fold change: -0.0417

RRIRPRPPRLPRPRPRPHNCPRP
shrunken log2 fold change: -0.111

RRIRPRPPRLPRPRPRPHNMPRP
shrunken log2 fold change: -0.745
